Results published in paper doi:10.1101/801027.

Target: T1, Hfq (Pseudomonas putida KT2440, UniProt Q88DD3 1-86)
T1 sequence: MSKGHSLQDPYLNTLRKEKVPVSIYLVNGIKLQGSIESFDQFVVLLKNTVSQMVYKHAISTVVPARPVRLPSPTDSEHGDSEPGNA
Assay: EMSA

B1: MicC scaffold (structured_RNA)
RNA: UUUCUGUUGGGCCAUUGCAUUGCCACUGAUUUUCCAACAUAUAAAAAGACAAGCCCGAACAGUCGUCCGGGCUUUUUUU
binding result: binds
